Nine sequences from the supplement of paper PMC11246515 can be followed below.

± gives the standard deviation of the averaged measurements.

The data set in a line: total protein half-life in vivo (active degradation + dilution); higher = more stable protein.
[1] abbreviates: E. coli NCM3722 delta-smpB, growth: N-lim chemostat, doubling time 6 h.
[2] abbreviates: E. coli NCM3722 delta-clpP delta-lon delta-hslV, growth: N-lim chemostat, doubling time 6 h.
Where [3] appears, read: E. coli NCM3722 delta-clpP, growth: N-lim chemostat, doubling time 6 h.
The mark [4] stands for this setting: E. coli NCM3722 delta-hslV, growth: N-lim chemostat, doubling time 6 h.
Where [5] appears, read: E. coli NCM3722 delta-lon, growth: N-lim chemostat, doubling time 6 h.
Setting [6] is: wild type E. coli NCM3722, growth: C-lim chemostat, doubling time 3 h.
[7] abbreviates: wild type E. coli NCM3722, growth: C-lim chemostat, doubling time 6 h.
Setting [8] is: wild type E. coli NCM3722, growth: N-lim chemostat, doubling time 6 h.
[9] abbreviates: wild type E. coli NCM3722, growth: C-lim chemostat, doubling time 12 h.
[10] abbreviates: wild type E. coli NCM3722, growth: N-lim chemostat, doubling time 12 h.
Where [11] appears, read: wild type E. coli NCM3722, growth: P-lim chemostat, doubling time 6 h.
Setting [12] is: wild type E. coli NCM3722, growth: P-lim chemostat, doubling time 12 h.

Take “MSNIWSKEETLWSFALYGTAVGAGTLFLPIQLGSAGAVVLFITALVAWPLTYWPHKALCQFILSSKTSAGEGITGAVTHYYGKKIGNLITTLYFIAFFVVVLIYAVAITNSLTEQLAKHMVIDLRIRMLVSLGVVLILNLIFLMGRHATIRVMGFLVFPLIAYFLFLSIYLVGSWQPDLLTTQVEFNQNTLHQIWISIPVMVFAFSHTPIISTFAIDRREKYGEHAMDKCKKIMKVAYLIICISVLFFVFSCLLSIPPSYIEAAKEEGVTILSALSMLPNAPAWLSISGIIVAVVAMSKSFLGTYFGVIEGATEVVKTTLQQVGVKKSRAFNRALSIMLVSLITFIVCCINPNAISMIYAISGPLIAMILFIMPTLSTYLIPALKPWRSIGNLITLIVGILCVSVMFFS”: under setting [1], the “total protein half-life in vivo” value was found to be 5.13 h.

In the case of “MGDIMRPIPFEELLTRIFDEYQQQRSIFGIPEQQFYSPVKGKTVSVFGETCATPVGPAAGPHTQLAQNIVTSWLTGGRFIELKTVQILDRLELEKPCIDAEDECFNTEWSTEFTLLKAWDEYLKAWFALHLLEAMFQPSDSGKSFIFNMSVGYNLEGIKQPPMQQFIDNMMDASDHPKFAQYRDTLNKLLQDDAFLARHGLQEKRESLQALPARIPTSMVHGVTLSTMHGCPPHEIEAICRYMLEEKGLNTFVKLNPTLLGYARVREILDVCGFGYIGLKEESFDHDLKLTQALEMLERLMALAKEKSLGFGVKLTNTLGTINNKGALPGEEMYMSGRALFPLSINVAAVLSRAFDGKLPISYSGGASQLTIRDIFDTGIRPITMATDLLKPGGYLRLSACMRELEGSDAWGLDHVDVERLNRLAADALTMEYTQKHWKPEERIEVAEDLPLTDCYVAPCVTACAIKQDIPEYIRLLGEHRYADALELIYQRNALPAITGHICDHQCQYNCTRLDYDSALNIRELKKVALEKGWDEYKQRWHKPAGSGSRHPVAVIGAGPAGLAAGYFLARAGHPVTLFEREANAGGVVKNIIPQFRIPAELIQHDIDFVAAHGVKFEYGCSPDLTIEQLKNQGFHYVLIATGTDKNSGVKLAGDNQNVWKSLPFLREYNKGTALKLGKHVVVVGAGNTAMDCARAALRVPGVEKATIVYRRSLQEMPAWREEYEEALHDGVEFRFLNNPERFDADGTLTLRVMSLGEPDEKGRRRPVETNETVTLLVDSLITAIGEQQDTEALNAMGVPLDKNGWPDVDHNGETRLTDVFMIGDVQRGPSSIVAAVGTARRATDAILSRENIRSHQNDKYWNNVNPAEIYQRKGDISITLVNSDDRDAFVAQEAARCLECNYVCSKCVDVCPNRANVSIAVPGFQNRFQTLHLDAYCNECGNCAQFCPWNGKPYKDKITVFSLAQDFDNSSNPGFLVEDCRVRVRLNNQSWVLNIDSKGQFNNVPPELNDMCRIISHVHQHHHYLLGRVEV”, the “total protein half-life in vivo” value under setting [2] is 6.26 ± 1.4 h; the “total protein half-life in vivo” value under setting [3] worked out at 5.57 h; the “total protein half-life in vivo” value under setting [4] is 5.57 h; the “total protein half-life in vivo” value under setting [5] is 6.62 h; the “total protein half-life in vivo” value under setting [6] worked out at 2.86 ± 0.32 h; the “total protein half-life in vivo” value under setting [7] stood at 6.06 h. Further, under setting [8], the “total protein half-life in vivo” value stood at 6.49 h.

As for “MTDLTAQEPAWQTRDHLDDPVIGELRNRFGPDAFTVQATRTGVPVVWIKREQLLEVGDFLKKLPKPYVMLFDLHGMDERLRTHREGLPAADFSVFYHLISIDRNRDIMLKVALAENDLHVPTFTKLFPNANWYERETWDLFGITFDGHPNLRRIMMPQTWKGHPLRKDYPARATEFSPFELTKAKQDLEMEALTFKPEEWGMKRGTENEDFMFLNLGPNHPSAHGAFRIVLQLDGEEIVDCVPDIGYHHRGAEKMGERQSWHSYIPYTDRIEYLGGCVNEMPYVLAVEKLAGITVPDRVNVIRVMLSELFRINSHLLYISTFIQDVGAMTPVFFAFTDRQKIYDLVEAITGFRMHPAWFRIGGVAHDLPRGWDRLLREFLDWMPKRLASYEKAALQNTILKGRSQGVAAYGAKEALEWGTTGAGLRATGIDFDVRKARPYSGYENFDFEIPVGGGVSDCYTRVMLKVEELRQSLRILEQCLNNMPEGPFKADHPLTTPPPKERTLQHIETLITHFLQVSWGPVMPANESFQMIEATKGINSYYLTSDGSTMSYRTRVRTPSFAHLQQIPAAIRGSLVSDLIVYLGSIDFVMSDVDR”, the “total protein half-life in vivo” value by setting is: under setting [2], 6.01 ± 0.11 h; under setting [3], 7.18 ± 1.1 h; under setting [4], 5.883 ± 0.042 h; under setting [5], 6.39 ± 0.17 h; under setting [1], 6.2 ± 0.22 h; under setting [6], 3.32 ± 0.17 h. Besides, the “total protein half-life in vivo” value was found to be 6.15 ± 0.1 h under setting [7]; 11.43 ± 0.014 h under setting [9]; 6.33 ± 0.14 h under setting [8]; 12.22 ± 0.12 h under setting [10]; 6.224 ± 0.032 h under setting [11]; 11.84 ± 0.096 h under setting [12].

Consider “MSIKTIKYFSTIIVAVVAVLAGWWLWNYYMQSPWTRDGKIRAEQVSITPQVSGRIVELNIKDNQLVNAGDLLLTIDKTPFQIAELNAQAQLAKAQSDLAKANNEANRRRHLSQNFISAEELDTANLNVKAMQASVDAAQATLKQAQWQLAQTEIRAPVSGWVTNLTTRIGDYADTGKPLFALVDSHSFYVIGYFEETKLRHIREGAPAQITLYSDNKTLQGHVSSIGRAIYDQSVESDSSLIPDVKPNVPWVRLAQRVPVRFALDKVPGDVTLVSGTTCSIAVGQ”, for which the “total protein half-life in vivo” value is, setting by setting: under setting [2], 6.427 ± 0.064 h; under setting [3], 4.89 ± 0.55 h; under setting [4], 6.39 ± 0.71 h; under setting [5], 6.46 ± 0.5 h; under setting [1], 5.645 ± 0.01 h; under setting [6], 3.43 ± 0.24 h. Also, the “total protein half-life in vivo” value worked out at 6.64 ± 0.59 h under setting [7]; 11.2 ± 1.9 h under setting [9]; 6.093 ± 0.06 h under setting [8]; 14.4 ± 1.4 h under setting [10]; 6.58 ± 0.25 h under setting [11]; 12.5 ± 0.34 h under setting [12].

On to “MKTGSEFHVGIVGLGSMGMGAALSYVRAGLSTWGADLNSNACATLKEAGACGVSDNAATFAEKLDALLVLVVNAAQVKQVLFGETGVAQHLKPGTAVMVSSTIASADAQEIATALAGFDLEMLDAPVSGGAVKAANGEMTVMASGSDIAFERLAPVLEAVAGKVYRIGAEPGLGSTVKIIHQLLAGVHIAAGAEAMALAARAGIPLDVMYDVVTNAAGNSWMFENRMRHVVDGDYTPHSAVDIFVKDLGLVADTAKALHFPLPLASTALNMFTSASNAGYGKEDDSAVIKIFSGITLPGAKS”, for which the “total protein half-life in vivo” value under setting [2] turned out to be 5.94 h, the “total protein half-life in vivo” value under setting [6] turned out to be 0.261 h, the “total protein half-life in vivo” value under setting [7] came to 0.509 h and the “total protein half-life in vivo” value under setting [9] stood at 1.69 ± 1.5 h.

As to “MGKHHWKIEKQPEWYVKAVRKTIAALPSGYAEAADWLDVTENALFNRLRADGDQIFPLGWAMVLQRAGGTHFIADAVAQSANGVFVSLPDVEDVDNADINQRLLEVIEQIGSYSKQIRSAIEDGVVEPHEKTAINDELYLSISKLQEHAALVYKIFCISESNDARECAAPGVVASIASGCGETNA”, the “total protein half-life in vivo” value under setting [2] is 2.93 ± 0.6 h.

As to “MMGKLIWLMGPSGSGKDSLLAELRLREQTQLLVAHRYITRDASAGSENHIALSEQEFFTRAGQNLLALSWHANGLYYGVGVEIDLWLHAGFDVLVNGSRAHLPQARARYQSALLPVCLQVSPEILRQRLENRGRENASEINARLARAARYTPQDCHTLNNDGSLRQSVDTLLTLIHQKEKHHACL”, the “total protein half-life in vivo” value under setting [2] was 5.33 h, the “total protein half-life in vivo” value under setting [11] came to 0.578 h and the “total protein half-life in vivo” value under setting [12] worked out at 1.28 h.

For “MQFNIPTLLTLFRVILIPFFVLVFYLPVTWSPFAAALIFCVAAVTDWFDGFLARRWNQSTRFGAFLDPVADKVLVAIAMVLVTEHYHSWWVTLPAATMIAREIIISALREWMAELGKRSSVAVSWIGKVKTTAQMVALAWLLWRPNIWVEYAGIALFFVAAVLTLWSMLQYLSAARADLLDQ [P0ABF8]”, the “total protein half-life in vivo” value reads like this: under setting [2], 7.82 h; under setting [3], 6.476 ± 0.013 h; under setting [5], 5.76 h; under setting [1], 5.9 h; under setting [6], 3.1 ± 0.097 h; under setting [7], 5.64 ± 0.51 h. Moreover, the “total protein half-life in vivo” value worked out at 15.4 h under setting [9], 9.62 ± 4.9 h under setting [10], 6.75 ± 1.5 h under setting [11] and 12.1 ± 1.3 h under setting [12].

On to “MSHQLTFADSEFSSKRRQTRKEIFLSRMEQILPWQNMVEVIEPFYPKAGNGRRPYPLETMLRIHCMQHWYNLSDGAMEDALYEIASMRLFARLSLDSALPDRTTIMNFRHLLEQHQLARQLFKTINRWLAEAGVMMTQGTLVDATIIEAPSSTKNKEQQRDPEMHQTKKGNQWHFGMKAHIGVDAKSGLTHSLVTTAANEHDLNQLGNLLHGEEQFVSADAGYQGAPQREELAEVDVDWLIAERPGKVRTLKQHPRKNKTAINIEYMKASIRARVEHPFRIIKRQFGFVKARYKGLLKNDNQLAMLFTLANLFRADQMIRQWERSH [P0CE51]”, for which the “total protein half-life in vivo” value runs as follows: under setting [2], 3.8 ± 0.34 h; under setting [1], 0.495 h; under setting [6], above 4 h; under setting [7], 0.676 h; under setting [9], 3.18 h; under setting [8], 0.532 h. In addition, the “total protein half-life in vivo” value turned out to be 0.426 h under setting [11] and 0.648 h under setting [12].
